This note sets out measurements from PMC5346638, “Azadiradione ameliorates polyglutamine expansion disease in Drosophila by potentiating DNA binding activity of heat shock factor 1” (Oncotarget, 2016).

Data set [1] relates to his6-HSF1 (codon-optimized) (Homo sapiens). As to the kind of experiment: tryptophan fluorescence quenching. As to conditions: room temperature, Fluorescence: 2 uM HSF1, 0-10 uM HSE, buffer not given, EMSA: 0.5 uM protein or 50 ug WCE, 1 ng 32P-HSE, buffer per cited reference, 4% PAGE. (In general: Mobility shift assays separate free from complexed probe on a gel.)
For data set [2] the test system is unchanged. The data set can be described thus: EMSA. The following applies: Fluorescence: 2 uM HSF1, 0-10 uM HSE, room temperature, buffer not given; EMSA: 0.5 uM protein or 50 ug WCE, 1 ng 32P-HSE, buffer per cited reference, 4% PAGE.
The target in data set [3] is T1, heat shock factor 1 (HSF1) (Homo sapiens, UniProt Q00613).
T1 construct: purified full length HSF1, N-terminal his6 tag, expressed in E. coli
T1 sequence (Q00613 1-529): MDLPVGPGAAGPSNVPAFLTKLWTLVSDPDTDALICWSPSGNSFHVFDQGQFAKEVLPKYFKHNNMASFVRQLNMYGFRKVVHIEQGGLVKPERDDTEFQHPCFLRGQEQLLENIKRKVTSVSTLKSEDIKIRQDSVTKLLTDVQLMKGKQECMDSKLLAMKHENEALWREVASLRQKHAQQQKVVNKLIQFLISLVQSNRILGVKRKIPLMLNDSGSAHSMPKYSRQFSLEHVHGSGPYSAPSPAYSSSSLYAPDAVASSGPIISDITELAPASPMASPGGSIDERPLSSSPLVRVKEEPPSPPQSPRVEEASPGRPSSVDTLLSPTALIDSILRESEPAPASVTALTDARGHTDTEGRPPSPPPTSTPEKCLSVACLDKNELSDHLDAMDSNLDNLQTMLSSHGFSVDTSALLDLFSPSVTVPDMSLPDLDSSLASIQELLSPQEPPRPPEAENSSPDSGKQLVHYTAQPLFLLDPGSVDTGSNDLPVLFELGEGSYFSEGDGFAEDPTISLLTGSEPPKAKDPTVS
The data set can be described thus: intrinsic tryptophan fluorescence titration, Scatchard plot; supported by EMSA, CD, light scattering. The data set is classed as binding.

Bounds are passed on as bounds.

Usually Kd stands for the equilibrium constant for the complex coming apart. Read a high Kd as a looser complex. Turning to HSE (proximal HSE of hsp70A1A promoter), the Kd in data set [1] (5 uM azadiradione) is 350 nM; in data set [1] (no AZD), 800 nM. The molecule further showed a binding signal (fold affinity increase with AZD) in data set [2] above 2.
Take `CC(=O)O[C@@H]1C[C@H]2C(C)(C)C(=O)C=C[C@]2(C)[C@H]2CC[C@]3(C)C(=CC(=O)[C@H]3c3ccoc3)[C@@]21C` [AZD, azadiradione]: the Kd in data set [3] was 1350 nM.
